B1: THAP1; numbered along this chain (parent)
chain: MVQSCSAYGCKNRYDKDKPVSFHKFPLTRPSLCKEWEAAVRRKNFKPTKYSSICSEHFTPDCFKRECNNKLLKENAVPTIFLCTEPHDKKEDLLEPQEQLPPPPLPPPVSQVDAAIGLLMPPLQTPVNLSVFCDHNYTVEDTMHQRKRIHQLEQQVEKLRKKLKTAQQRCRRQERQLEKLKEVVHFQKEKDDVSERGYVILPNDYFEIVEVPA

Results on 28 variants are retold here after the supplement of paper PMC11811203.

The variants in the data set derive from B1. Put plainly: THAP1 transcriptional activity (GFP+/GFP- enrichment relative to wild-type constructs) (ratio to WT); higher = more THAP1 activity (PSMB5 reporter activation). The following applies: with PSMB5 promoter-GFP reporter. A digest of the protocol: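 A lentiviral site-saturation library covering residues 2–213 of human THAP1, with each position changed to all 20 amino acids, was transduced in duplicate at MOI ~0.3 into THAP1-knockout HEK-293T cells with mClover3 knocked in at endogenous PSMB5. Five days later, BFP+ cells were sorted into GFP-dim and GFP-bright bins and variants were counted by Illumina sequencing of genomic DNA amplicons. Activity is the bright/dim read fold change averaged over replicates and divided by the mean of wild-type synonymous constructs.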
Consider MVQSCSAYGCKNRYDKDKPVSFHKFPLTRPSLCKEWEAAVRRKNFKPTKYSSICSEHFTPDCFKRECNNKLLKENAVPTIFLCTEPHDKKEDLLEPQEQLPPPPLPPPVSQVDAAIGLLMPPLQTPVNLSVFCDHNYTVEDTMHQRKRIHQLEQQVEKLRKKLKLAQQRCRRQERQLEKLKEVVHFQKEKDDVSERGYVILPNDYFEIVEVPA [T165L], for which the THAP1 transcriptional activity came to 0.668.
Consider MVQSCSAYGCKNRYDKDKPVSFHKFPLTRPSLCKEWEAAVRRKNFKPTKYSSICSEHFTPDCFKRECNNKLLKENAVPTIFLCTEPHDKKEDLLEPQEQLPPPPLPPPVSQVDAAIGLLMPPLQTPVNLSVFCDHNYTVEDTMHQRKRIHQLEQQVEKLRKKLKTAQQRCRRQERQLEKLKEVVHFQKEKDDVSERGYQILPNDYFEIVEVPA [V199Q], for which the THAP1 transcriptional activity worked out at 0.623.
The same measure for MVQSCSAYGCKNRYDKDKPVSFHKFPLTRPSLCKEWEAAVRRKNFKPTKYSSICSEHFTPDCFKRECNNKLLKENAVPTIFLCTEPHDKKEDLLEPQEQLPPPPYPPPVSQVDAAIGLLMPPLQTPVNLSVFCDHNYTVEDTMHQRKRIHQLEQQVEKLRKKLKTAQQRCRRQERQLEKLKEVVHFQKEKDDVSERGYVILPNDYFEIVEVPA [L105Y]: 0.831; for MVQSCSAYGCKNRYDKDKPVSFHKFPLTRPSLCKEWEAAVRRKNFKPTKYSSICSEHFTPDCFKRECNNKLLKENAVPTIFLCTEPHDKKEDLLEPQEQLPPPPLPPPVSQVDAAIGLEMPPLQTPVNLSVFCDHNYTVEDTMHQRKRIHQLEQQVEKLRKKLKTAQQRCRRQERQLEKLKEVVHFQKEKDDVSERGYVILPNDYFEIVEVPA [L119E]: 1.03; for MVQSCSAYGCKNRYDKDKPVSFHKFPLTRPSLCKEWEAAVRRKNFKPTKYSSICSEHFTPDCFKRECNNKLLKENAVPTIFLCTEPHDKKEDLLEPQEQLPPPPLPPPVSQVDAAIGLLMPPLQTPVNLSVFCDHNYTVEDTMHQRKRIHQLEQQVEKLRKKLKTAQQRCDRQERQLEKLKEVVHFQKEKDDVSERGYVILPNDYFEIVEVPA [R171D]: 0.228.
As for MVQSCSAYGCKNRYDKDKPVSFHKFPLTRPSLCKEWEAAVRRKNFKPTKYSSICSEHFTPDCFKRECNNKLLKENAVPTIFLCTEPHDKKEDLLEPQEQLPPPPLPPPVSQVDAAIGLLMPPLQTPVNLSVFCDHNYTVEFTMHQRKRIHQLEQQVEKLRKKLKTAQQRCRRQERQLEKLKEVVHFQKEKDDVSERGYVILPNDYFEIVEVPA [D141F], the THAP1 transcriptional activity was 0.552.
The same measure for MVQSCSAYGCKNRYDKDKPVSFHKFPLTRPSLCKEWEAAVRRKNFKPTKYSSICSEHFTPDCFKRECNNKLLKENAVPTIFLCTEPHSKKEDLLEPQEQLPPPPLPPPVSQVDAAIGLLMPPLQTPVNLSVFCDHNYTVEDTMHQRKRIHQLEQQVEKLRKKLKTAQQRCRRQERQLEKLKEVVHFQKEKDDVSERGYVILPNDYFEIVEVPA [D88S]: 1.92; for MVSSCSAYGCKNRYDKDKPVSFHKFPLTRPSLCKEWEAAVRRKNFKPTKYSSICSEHFTPDCFKRECNNKLLKENAVPTIFLCTEPHDKKEDLLEPQEQLPPPPLPPPVSQVDAAIGLLMPPLQTPVNLSVFCDHNYTVEDTMHQRKRIHQLEQQVEKLRKKLKTAQQRCRRQERQLEKLKEVVHFQKEKDDVSERGYVILPNDYFEIVEVPA [Q3S]: 0.278.
As for MVQSCSAYGCKNRYDKDKPVSFHKFPLTRPSLCKEWEAAVRRKNFKPTKYSSICSEHFTPDCFKRECNNKLLKENAVPTIFLCTEPHDKKEDLLEPQEQLPPPPLPPPVSQNDAAIGLLMPPLQTPVNLSVFCDHNYTVEDTMHQRKRIHQLEQQVEKLRKKLKTAQQRCRRQERQLEKLKEVVHFQKEKDDVSERGYVILPNDYFEIVEVPA [V112N], the figure is 1.3; as for MVQSCSAYGCKNRYDKDKPVSFHKFPLTRPSLCKEWEAAVRRKNFKPTKYSSICSEHFTPDCFKRECNNKLLKENAVPTIFLCTEPHDKKEDLLEPQEQLPPPPLPPPVSQVDAAIGLLMPPLQTPVNLSVFCDHNYTVEDTMHQRKRWHQLEQQVEKLRKKLKTAQQRCRRQERQLEKLKEVVHFQKEKDDVSERGYVILPNDYFEIVEVPA [I149W], 0.164; as for MVQSCSAYGCKNRYDKDKPVSFHKFPLTRPSLCKEWEAAVRRKNFKPTKYSSICSEHFTPDCFKRECNNKLLKENAHPTIFLCTEPHDKKEDLLEPQEQLPPPPLPPPVSQVDAAIGLLMPPLQTPVNLSVFCDHNYTVEDTMHQRKRIHQLEQQVEKLRKKLKTAQQRCRRQERQLEKLKEVVHFQKEKDDVSERGYVILPNDYFEIVEVPA [V77H], 0.287.
As for MVQSCSAYGCVNRYDKDKPVSFHKFPLTRPSLCKEWEAAVRRKNFKPTKYSSICSEHFTPDCFKRECNNKLLKENAVPTIFLCTEPHDKKEDLLEPQEQLPPPPLPPPVSQVDAAIGLLMPPLQTPVNLSVFCDHNYTVEDTMHQRKRIHQLEQQVEKLRKKLKTAQQRCRRQERQLEKLKEVVHFQKEKDDVSERGYVILPNDYFEIVEVPA [K11V], the figure is 0.529; as for MVQSCSAYGCKNRYDKDKPVSFHKFPLTRPSLCKEWEAAVRRKNFKPTKYSSICSEHFTPDCFKRECNNKLLKENAVPTIFLCTEPHDKKEDLLEPQCQLPPPPLPPPVSQVDAAIGLLMPPLQTPVNLSVFCDHNYTVEDTMHQRKRIHQLEQQVEKLRKKLKTAQQRCRRQERQLEKLKEVVHFQKEKDDVSERGYVILPNDYFEIVEVPA [E98C], 0.653; as for MVQSCSAYGCKNRYDKDKPVWFHKFPLTRPSLCKEWEAAVRRKNFKPTKYSSICSEHFTPDCFKRECNNKLLKENAVPTIFLCTEPHDKKEDLLEPQEQLPPPPLPPPVSQVDAAIGLLMPPLQTPVNLSVFCDHNYTVEDTMHQRKRIHQLEQQVEKLRKKLKTAQQRCRRQERQLEKLKEVVHFQKEKDDVSERGYVILPNDYFEIVEVPA [S21W], 0.115.
Consider MVQSCSAYGCKNRYDKDKPVSFHKFPLTRPSLCKEWEAAVRRKNFKPTKYSSICSEHFTPDCFKRECNNKLLKENAVPTIFLCTEPHDKKEDLLEPQEQLPPPPLPPPVSQVDAAIGLLMPPAQTPVNLSVFCDHNYTVEDTMHQRKRIHQLEQQVEKLRKKLKTAQQRCRRQERQLEKLKEVVHFQKEKDDVSERGYVILPNDYFEIVEVPA [L123A], for which the THAP1 transcriptional activity is 0.859.
As for MVQSCSAYGCKNRYDKDKPVSFHKFPLTRPSLCKEWEHAVRRKNFKPTKYSSICSEHFTPDCFKRECNNKLLKENAVPTIFLCTEPHDKKEDLLEPQEQLPPPPLPPPVSQVDAAIGLLMPPLQTPVNLSVFCDHNYTVEDTMHQRKRIHQLEQQVEKLRKKLKTAQQRCRRQERQLEKLKEVVHFQKEKDDVSERGYVILPNDYFEIVEVPA [A38H], the THAP1 transcriptional activity was determined as 0.797.
The same measure for MVQSCSAYGCKNRYDKDKPVSFHKFPLTRPSLCKEWEAAVRRKNFKPTKYSSICSEHFTPDCFKRECNNKLLKENAVPTIFLCTEPHDKKEDLLEPQEQLPPPPLPPPVSQVDAAIGLLMPPLQTPVNLSVFCDHNYNVEDTMHQRKRIHQLEQQVEKLRKKLKTAQQRCRRQERQLEKLKEVVHFQKEKDDVSERGYVILPNDYFEIVEVPA [T138N]: 0.196; for MVQSCSAYGCKNRYDKDKPVSFHKFPLTRPSLCKEWEAAVRRKNFKPTKYSSICSEHFTPDCFKRECNNKLLKENAVPTIFLCTEPHDKKEDLLEPQEQLPPPPLPPPVSQVDAAIGLLMPPLQTPVNLSVFCDHNYEVEDTMHQRKRIHQLEQQVEKLRKKLKTAQQRCRRQERQLEKLKEVVHFQKEKDDVSERGYVILPNDYFEIVEVPA [T138E]: 0.215; for MVQSCSAYGCKNRYDKDKPVSFHKFPLTRPSLCKEWEAAVRRKNFKPTKYSSICSEEFTPDCFKRECNNKLLKENAVPTIFLCTEPHDKKEDLLEPQEQLPPPPLPPPVSQVDAAIGLLMPPLQTPVNLSVFCDHNYTVEDTMHQRKRIHQLEQQVEKLRKKLKTAQQRCRRQERQLEKLKEVVHFQKEKDDVSERGYVILPNDYFEIVEVPA [H57E]: 0.0678.
With MVQSCSAYGCKNRYDKDKPVSFHKFPLTRPSLCKEWEAAVRRKNFKPTKYSSICSEHFTPDCFKRECNNKLLKENAVPTIFLCTEPHDKKEDLLEPQEQLPPPPLPPPVSQVDAAIGLLMPPLQTPVNLSVFCDHNYTVEDTMHQRKPIHQLEQQVEKLRKKLKTAQQRCRRQERQLEKLKEVVHFQKEKDDVSERGYVILPNDYFEIVEVPA [R148P], the THAP1 transcriptional activity worked out at 0.18.
The same measure for MVQSCSAYGCKNRYDKDKPVSFHKFPLTRTSLCKEWEAAVRRKNFKPTKYSSICSEHFTPDCFKRECNNKLLKENAVPTIFLCTEPHDKKEDLLEPQEQLPPPPLPPPVSQVDAAIGLLMPPLQTPVNLSVFCDHNYTVEDTMHQRKRIHQLEQQVEKLRKKLKTAQQRCRRQERQLEKLKEVVHFQKEKDDVSERGYVILPNDYFEIVEVPA [P30T]: 0.349; for MVQSCSAYGCKNRYDKDKPVSFHKFPLTRPSLCKEWEAAVRRKNFKPTKYSSICSEHFTPDCFKRECNNKLLKENAVPTIFLCTEPHDKKEDLLEPQEQLPPPPLPPPVSQVDAAIGLLMPPLQTPVTLSVFCDHNYTVEDTMHQRKRIHQLEQQVEKLRKKLKTAQQRCRRQERQLEKLKEVVHFQKEKDDVSERGYVILPNDYFEIVEVPA [N128T]: 0.494.
For the variant MVQSCSAYGCKNRYDKDKPVSFHKFPLTRPSLCKEWEAAVRRKNFKPTKYSSICSEHFTPDCFKRECNNKLLKENAVPTIFLCTEPHDSKEDLLEPQEQLPPPPLPPPVSQVDAAIGLLMPPLQTPVNLSVFCDHNYTVEDTMHQRKRIHQLEQQVEKLRKKLKTAQQRCRRQERQLEKLKEVVHFQKEKDDVSERGYVILPNDYFEIVEVPA [K89S], the THAP1 transcriptional activity came out at 2.9.
Regarding MVQSCSAYGCKNRYDKDKPVSFHKFPLTRPSLCKEWEAAVRRKNFKPTKYSSICSEHFTPDCFKRECNNKLLKENAVPTIFLCTEPHDLKEDLLEPQEQLPPPPLPPPVSQVDAAIGLLMPPLQTPVNLSVFCDHNYTVEDTMHQRKRIHQLEQQVEKLRKKLKTAQQRCRRQERQLEKLKEVVHFQKEKDDVSERGYVILPNDYFEIVEVPA [K89L], the THAP1 transcriptional activity was 1.64.
The same measure for MVQSCSAYGCKNRYDKDKPVSFHKFPLTRPSLCKEWEAAVRRKNFKPTKYSSICSEHFTPDCFKRECNNKLLKENAVPTIFLCTEPHDKKEDLLEPQEQLPPPPLPPPVSQVDAAIGLLMPPLQTPVNLSVFCDHNYTVEDTMHQRKRIHQLEQQVEKLRKKLKTAQQRCRRQERQLEKLKEVVHFQKEKDDVSERGYVILPNDYFYIVEVPA [E207Y]: 1.02; for MVQSCSAYGCKNRYDKDKPVSFHKFPLTRPSLCKEWEAAVRRKNFKPTKYSSICSEHFTPDCFKRECNNKLLKENAVPTIFLCTEPHDKKEDLLEPQEQLPPPPLPPPVSQVDAADGLLMPPLQTPVNLSVFCDHNYTVEDTMHQRKRIHQLEQQVEKLRKKLKTAQQRCRRQERQLEKLKEVVHFQKEKDDVSERGYVILPNDYFEIVEVPA [I116D]: 1.33.
As for MVQSCSAYGCKNRYDKDKPVSFHKFPLTRPSLCKEWEAAVRRKPFKPTKYSSICSEHFTPDCFKRECNNKLLKENAVPTIFLCTEPHDKKEDLLEPQEQLPPPPLPPPVSQVDAAIGLLMPPLQTPVNLSVFCDHNYTVEDTMHQRKRIHQLEQQVEKLRKKLKTAQQRCRRQERQLEKLKEVVHFQKEKDDVSERGYVILPNDYFEIVEVPA [N44P], the THAP1 transcriptional activity was determined as 0.0859.
As for MVQSCSAYGCKNRYDKDKPVSFHKFPLTRPSLCKEWEAAVRRKNFKPTKYSSICSEHFTPDCFKRECNNKLLKENAVPTIFLCTEPHDKKEDLLEPQEQLPPPPLPPPVSQVDAAIGLLMPPLQTPVNLSVFCDHNYTVEDTMHQRKRIHQLEQQVEKLRKKLKTAQQRCRRQERQLEKLKEVVHFQKEKDDVSERGYVILPSDYFEIVEVPA [N203S], the THAP1 transcriptional activity came to 1.54.
